Experimental data as given in publication PMC10241913 (Nature Communications, 2023).
Blank lines part the entries; values can stand above or below the binder they belong to. No end group written: not given here.

Key:
Conditions in all cases: both partners purified
p97-N (1–199) = target: T1, p97-N (1–199) (UniProt P55072 1-199); assay: fluorescence polarisation; fluorescence anisotropy; Atto594-labeled UBXD1 proteins, p97 constructs titrated; 50 mM NaKPi pH 7.5, 25 °C; all fitted with stoichiometry n = 1
T1 construct: p97/VCP, N-domain, residues 1-199; also called N-domain of p97; source: E. coli BL21 DE3 (T1r) (pET28a), purified
T1 sequence (P55072 1-199): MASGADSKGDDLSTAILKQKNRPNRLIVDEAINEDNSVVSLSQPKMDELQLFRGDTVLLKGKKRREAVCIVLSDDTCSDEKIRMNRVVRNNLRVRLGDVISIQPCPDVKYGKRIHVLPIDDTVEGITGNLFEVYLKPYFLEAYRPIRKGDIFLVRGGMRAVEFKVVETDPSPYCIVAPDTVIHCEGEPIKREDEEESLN

UBXD1-PUB (150–264) = target: T2, UBXD1-PUB (150–264) (human, UniProt Q9BZV1 150-264); assay: NMR titration; 1H-15N-HSQC: 15N-UBXD1-PUB (400 µM) with HR23b-UBL (0 to 1300 µM), and the reverse titration of 15N-HR23b-UBL with UBXD1-PUB; 25 °C
T2 construct: UBXD1 (UBXN6), human, PUB domain, residues 150-264; 15N-labelled for some NMR titrations; also called isolated PUB domain; His-UBXD1-PUB; source: E. coli Rosetta2, purified (Ni-NTA, thrombin cleavage, SEC); not shown: His6, N-terminal, cleaved
T2 sequence (looked up): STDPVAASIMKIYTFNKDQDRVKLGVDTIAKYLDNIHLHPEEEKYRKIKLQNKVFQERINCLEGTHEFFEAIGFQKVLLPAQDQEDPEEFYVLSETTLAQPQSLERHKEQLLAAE

[1] = target: T3, UBXD1 (1–441), recombinant, purified (human, UniProt Q9BZV1 1-441); assay: fluorescence polarisation; direct anisotropy titration of 5,6-FAM-p97-C10 peptide (0.1 µM in the displacement set-up) with UBXD1
T3 construct: also called UBXD1-wt; UBXD1-fl; not shown: GST, N-terminal, cleaved
T3 sequence (looked up): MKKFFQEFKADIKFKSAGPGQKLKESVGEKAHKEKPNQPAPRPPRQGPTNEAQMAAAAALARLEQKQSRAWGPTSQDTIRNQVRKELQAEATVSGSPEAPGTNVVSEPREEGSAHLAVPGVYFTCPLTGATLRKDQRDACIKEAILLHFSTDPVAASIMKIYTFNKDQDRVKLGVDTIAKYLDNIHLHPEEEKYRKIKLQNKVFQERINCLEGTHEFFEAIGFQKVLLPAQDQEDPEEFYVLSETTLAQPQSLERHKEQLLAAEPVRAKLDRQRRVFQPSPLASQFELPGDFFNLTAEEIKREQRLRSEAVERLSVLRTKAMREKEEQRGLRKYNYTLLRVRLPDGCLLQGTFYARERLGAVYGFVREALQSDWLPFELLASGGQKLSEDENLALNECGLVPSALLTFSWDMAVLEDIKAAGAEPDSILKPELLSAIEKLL

Kd (p97-N (1–199)): 22 ± 1 µM
B1: UBXD1-N (1–133) (domain or fragment, human, UniProt Q9BZV1 1-133, looked up)
chain: MKKFFQEFKADIKFKSAGPGQKLKESVGEKAHKEKPNQPAPRPPRQGPTNEAQMAAAAALARLEQKQSRAWGPTSQDTIRNQVRKELQAEATVSGSPEAPGTNVVSEPREEGSAHLAVPGVYFTCPLTGATLR
modifications: Atto594 (NHS ester; the UBXD1 proteins were labeled for anisotropy)
notes: UBXD1 (UBXN6), human, N-terminus, residues 1-133; The construct is not described on its own in the methods; limits from the results; also called UBXD1 N-terminus; not shown: GST, N-terminal, cleaved

Kd (UBXD1-PUB (150–264)): 1500 ± 900 µM
B2: HR23b-UBL (domain or fragment)
chain: not shown
notes: HR23b (RAD23B), UBL domain; The cited NMR structure of the HR23b-UBL domain is PDB 1P1A; 15N-labelled for the reverse titration; also called HR23b-UBL wt; UBL domain of HR23b; not shown: GST, N-terminal, cleaved

binding result [1]: binds
Binder: {5,6‑FAM}-TEDNDDDLYG (p97/VCP, C-terminal residues 797-806) [5,6-FAM-p97-C10 peptide]
